The IC50 is the concentration that gives 50% inhibition. Usually Kd stands for a measure of binding affinity in units of concentration. A high value points to lower affinity. The term koff denotes the rate constant with which the complex falls apart. A higher koff goes with fast dissociation.

This is an account of results in patent US20080254032A1 (published 2008).

For experiment [1], the target named is T1, human M-CSF (human, UniProt P09603 33-190).
T1 chain: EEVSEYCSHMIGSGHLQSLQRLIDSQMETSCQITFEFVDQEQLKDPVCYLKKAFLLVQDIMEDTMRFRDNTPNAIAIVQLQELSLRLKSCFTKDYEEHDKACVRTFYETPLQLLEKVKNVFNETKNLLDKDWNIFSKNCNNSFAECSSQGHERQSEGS
Description: receptor binding inhibition: antibody titrated against 125I-M-CSF binding to c-fms on cells (NIH-3T3/human c-fms or M-NSF-60).

Experiment [2] has as its target T1, human M-CSF. Description: cell-based or functional assay.
Experiment [3] concerns the target T1, human M-CSF. Put plainly: SPR, BIACORE 3000, 25 C, M-CSF amine-coupled on CM5 chip, antibody injected, 1:1 global fit. Background: SPR reads the build-up and loss of mass on a sensor chip optically.
The target in experiment [4] is T1, human M-CSF. Description: receptor binding inhibition: antibody titrated against 125I-M-CSF binding to c-fms on cells (NIH-3T3/human c-fms or M-NSF-60).
Experiment [5] deals with T1, human M-CSF. Put plainly: cell-based or functional assay.
The target of experiment [6] is T1, human M-CSF. Put plainly: SPR, BIACORE 3000, 25 C, M-CSF amine-coupled on B1 chip, antibody injected, 1:1 global fit.

Where two headings read alike, the source gives them in different places.

B1: monoclonal antibody 100 (antibody, human IgG2, kappa, V domains shown)
VH: EVQLLESGGGLVQPGGSLRLSCAASGFTFSSYAMSWVRQAPGKGLEWVSAISGRGGRTYFADSVKGRFTISRDNSKNTLYLQMNSLRAEDTAVYFCAVEGYSGRYGFFDYWGQGTLVTVSS
VL: EIVMTQSPATLSVSPGERATLSCRASQSVSSNLAWYQQKPGQAPRLLIYGASTRASGIPDRISGSGSGTEFTLIISSLQSEDFAVYYCQQSNNWPFTFGPGTKVDIKR
In experiment [1], B1 had an IC50 of 1250 pM. Further, in experiment [2], the “Human Whole Blood Monocyte Activation Assay [IC50, M]” value was determined as 1.53e-10 M and the “M-CSF Mouse Monocytic Cell Proliferation Assay [IC50, M]” value stood at 7.44e-10 M. Moreover, in experiment [3], the Kd came to 20 pM and the koff worked out at 1.7e-05 s⁻¹.

B2: monoclonal antibody 8.10.3 (antibody, human IgG2, kappa, V domains shown)
VH: EVQLVESGGGLVQPGGSLRLSCAASGFTFSSFSMTWVRQAPGKGLEWVSYISSRSSTISYADSVKGRFTISRDNAKNSLYLQMNSLRDEDTAVYYCARDPLLAGATFFDYWGQGTLVTVSS
VL: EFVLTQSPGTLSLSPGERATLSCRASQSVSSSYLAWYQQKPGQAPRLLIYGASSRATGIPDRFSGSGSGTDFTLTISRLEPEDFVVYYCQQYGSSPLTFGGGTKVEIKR
notes: Human antibody from hybridoma 8.10.3
In experiment [4], B2 gave an IC50 of 1500 pM. Further, in experiment [5], the “Human Whole Blood Monocyte Activation Assay [IC50, M]” value stood at 2.8e-10 M and the “M-CSF Mouse Monocytic Cell Proliferation Assay [IC50, M]” value came out at 4.13e-10 M.

B3: monoclonal antibody 2.7.3 (antibody, human IgG4, kappa, V domains shown)
VH: QVQLVESGGGVVQPGRSLRLSCAASGFTFSSYGMHWVRQAPGKGLEWVAFIWYDGSNKYYADSVKGRFTISRDNSKNTLYLQMNSLRAEDTAVYYCARGYRVYFDYWGQGTLVTVSS
VL: DIQMTQSPSSVSASVGDRVTITCRASQDISSWLAWYQRKPGKAPKLQIYAASSLESGVPSRFNGSGSGTDFTLSISSLQPEDFATYYCQQTNSFPLTFGGGTKVEIKR
For B3, the IC50 in experiment [1] is 308 pM. Also, binding in experiment [6] was characterised by a dissociation constant (Kd) of 4700 pM. In addition, in experiment [2], the “Human Whole Blood Monocyte Activation Assay [IC50, M]” value was determined as 7.15e-10 M and the “M-CSF Mouse Monocytic Cell Proliferation Assay [IC50, M]” value is 1.96e-10 M.

B4: monoclonal antibody 9.14.4 (antibody, human IgG4, kappa)
heavy: QVQLVESGGGLVKPGGSLRLSCAASGFTFSDYYMSWIRQAPGKGLEWVSYISSSGSTIYYADSVKGRFTISRDNAKNSLYLQMNSLRAEDTAVYYCARGLTGDYWGQGTLVTVSSASTKGPSVFPLAPCSRSTSESTAALGCLVKDYFPEPVTVSWNSGALTSGVHTFPAVLQSSGLYSLSSVVTVPSSSLGTKTYTCNVDHKPSNTKVDKRVESKYGPPCPSCPAPEFLGGPSVFLFPPKPKDTLMISRTPEVTCVVVDVSQEDPEVQFNWYVDGVEVHNAKTKPREEQFNSTYRVVSVLTVLHQDWLNGKEYKCKVSNKGLPSSIEKTISKAKGQPREPQVYTLPPSQEEMTKNQVSLTCLVKGFYPSDIAVEWESNGQPENNYKTTPPVLDSDGSFFLYSRLTVDKSRWQEGNVFSCSVMHEALHNHYTQKSLSLSPGK
light: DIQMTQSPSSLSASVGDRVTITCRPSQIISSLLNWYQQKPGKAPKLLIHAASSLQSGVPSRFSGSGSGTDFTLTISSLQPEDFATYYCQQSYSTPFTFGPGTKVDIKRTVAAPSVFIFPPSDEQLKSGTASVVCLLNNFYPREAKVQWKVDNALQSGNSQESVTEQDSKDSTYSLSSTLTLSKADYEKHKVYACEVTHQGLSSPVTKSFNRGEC
Take B4: in experiment [4], the IC50 came to 41 pM. Moreover, in experiment [5], the “Human Whole Blood Monocyte Activation Assay [IC50, M]” value was determined as 6.48e-10 M and the “M-CSF Mouse Monocytic Cell Proliferation Assay [IC50, M]” value stood at 2.02e-10 M.

B5: monoclonal antibody 1.120.1 (antibody, human IgG2, kappa, V domains shown)
VH: QVQLVQSGAEVKKPGASVKVSCKASGYTFTSYGISWVRQAPGQGLEWMGWISAYNGNTNYAQKLQDRVTMTTDTSTTTAYMELRSLRSDDTAVYYCARRAYGANFFDYWGQGTLVTVSS
VL: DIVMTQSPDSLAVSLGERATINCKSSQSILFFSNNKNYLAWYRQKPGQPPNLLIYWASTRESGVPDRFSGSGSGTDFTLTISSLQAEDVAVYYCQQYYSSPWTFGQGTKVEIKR
In the case of B5, in experiment [1], the IC50 is 157 pM. This molecule also registered a Kd in experiment [6] of 5400 pM. For the same molecule, in experiment [2], the “Human Whole Blood Monocyte Activation Assay [IC50, M]” value turned out to be 8.85e-10 M and the “M-CSF Mouse Monocytic Cell Proliferation Assay [IC50, M]” value was determined as 1.99e-10 M.

B6: monoclonal antibody 252 (antibody, human IgG2, kappa, V domains shown)
VH: QVQLVESGGGLVKPGGSLRLSCAASGFTFSDYYMSWIRQAPGKGLEWISYISGSGSTIYYADSVKGRFTISRDNAKNSLYLQMNSLRAEDTAVYHCARALGGMDVWGQGTTVTVSS
VL: DIQMTQSPSSLSASVGDRVTITCRASQSISGFLNWYQQKPGKAPKLLIYATSSLQSGVPFRFSGSGSGTDFTLTISSLQPEDFATYYCQQSYSVPFTFGPGTKVDIKR
Molecule B6 returned an IC50 in experiment [1] of 747 pM. Also, in experiment [2], the “Human Whole Blood Monocyte Activation Assay [IC50, M]” value worked out at 8.67e-10 M and the “M-CSF Mouse Monocytic Cell Proliferation Assay [IC50, M]” value was 1.86e-10 M. Also, in experiment [3], binding was put at a Kd of 13.3 pM and the koff is 1.03e-06 s⁻¹.

B7: monoclonal antibody 9.7.2IF (antibody, human IgG2, kappa, V domains shown)
VH: QVQLVESGGGLVKPGGSLRLSCAASGFTFSDYYMSWIRQAPGKGLEWVSYISSSGSTIYYADSVKGRFTISRDNAKNSLYLQMNSLRAEDTAVYYCARRIGGMDVWGQGTTVTVSS
VL: DIQMTQSPSSLSASVGDRVTITCRASQSISGFLIWYQQRPGKAPKLLIYATSSLQSGVPSRFSGSGSGTDFTLTISSLQPEDFATYYCQQSYSTPFTFGPGTKVDIKR
As for B7, the IC50 in experiment [4] was found to be 529 pM. In experiment [5], the “Human Whole Blood Monocyte Activation Assay [IC50, M]” value was 1.12e-09 M and the “M-CSF Mouse Monocytic Cell Proliferation Assay [IC50, M]” value was found to be 7.37e-10 M.

B8: monoclonal antibody 9.7.2 (antibody, human IgG4, kappa, V domains shown)
VH: QVQLVESGGGLVKPGGSLRLSCAASGFTFSDYYMSWIRQAPGKGLEWVSYISSSGSTIYYADSVKGRFTISRDNAKNSLYLQMNSLRAEDTAVYYCARRIGGMDVWGQGTTVTVSS
VL: DIQMTQSPSSLSASVGDRVTITCRASQSISGFLIWYQQRPGKAPKLLIYATSSLQSGVPLRFSGSESGTDFTLTISSLQPEDFATYYCQQSYSTPFTFGPGTKVDIKR
In the case of B8, the IC50 in experiment [4] amounted to 6 pM. Further, in experiment [5], the “Human Whole Blood Monocyte Activation Assay [IC50, M]” value came to 1.98e-10 M and the “M-CSF Mouse Monocytic Cell Proliferation Assay [IC50, M]” value is 7.37e-10 M.

B9: monoclonal antibody 88 (antibody, human IgG2, kappa, V domains shown)
VH: EVQLVESGGGLVQPGGSLRLSCAASGFTFSSYWMSWVRQAPGKGLEWVANIKQDGSEKYYVDSVKGRFTISRDNAKNSLYLQMNSLRAEDTAVYYCAPGIAAAGRAYWGQGTLVTVSS
VL: DIQMTQSPSSLSASVGDRVTITCRPSQDISSYLNWYQQKPGKAPKLLIYAASSLQSGVPLRFSGSGSGTDFTLTISSLQPEDFATYYCQQSYSTPFTFGPGTKVDIKR
The molecule B9 had an IC50 in experiment [1] of 445 pM. Besides, in experiment [2], the “Human Whole Blood Monocyte Activation Assay [IC50, M]” value stood at 5.8e-10 M and the “M-CSF Mouse Monocytic Cell Proliferation Assay [IC50, M]” value was 2.31e-10 M. In experiment [3], this molecule came in with a Kd of 1330 pM and a koff of 7.3e-05 s⁻¹.

B10: monoclonal antibody 9.14.4I (antibody, human IgG2, kappa)
heavy: QVQLVESGGGLVKPGGSLRLSCAASGFTFSDYYMSWIRQAPGKGLEWVSYISSSGSTIYYADSVKGRFTISRDNAKNSLYLQMNSLRAEDTAVYYCARGLTGDYWGQGTLVTVSSASTKGPSVFPLAPCSRSTSESTAALGCLVKDYFPEPVTVSWNSGALTSGVHTFPAVLQSSGLYSLSSVVTVPSSNFGTQTYTCNVDHKPSNTKVDKTVERKCCVECPPCPAPPVAGPSVFLFPPKPKDTLMISRTPEVTCVVVDVSHEDPEVQFNWYVDGVEVHNAKTKPREEQFNSTFRVVSVLTVVHQDWLNGKEYKCKVSNKGLPAPIEKTISKTKGQPREPQVYTLPPSREEMTKNQVSLTCLVKGFYPSDIAVEWESNGQPENNYKTTPPMLDSDGSFFLYSKLTVDKSRWQQGNVFSCSVMHEALHNHYTQKSLSLSPGK
light: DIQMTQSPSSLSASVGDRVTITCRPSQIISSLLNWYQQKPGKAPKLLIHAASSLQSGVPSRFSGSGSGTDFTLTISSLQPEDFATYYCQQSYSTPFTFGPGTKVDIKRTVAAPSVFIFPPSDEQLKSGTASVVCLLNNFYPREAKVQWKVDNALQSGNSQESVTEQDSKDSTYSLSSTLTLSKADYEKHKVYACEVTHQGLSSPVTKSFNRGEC
Regarding B10, the IC50 in experiment [4] is 297 pM. In experiment [5], the “Human Whole Blood Monocyte Activation Assay [IC50, M]” value worked out at 2.49e-10 M and the “M-CSF Mouse Monocytic Cell Proliferation Assay [IC50, M]” value came to 2.02e-10 M.

B11: monoclonal antibody 3.8.3 (antibody, human IgG2, kappa, V domains shown)
VH: QVQLVESGGGLVKPGGSLRLSCAASGFTFSDYYMSWIRQAPGKGLEWFSYISSSGSTIYYADSVKGRFTISRDNAKNSLSLQMNSLRAEDTAVYYCARGLTGDYWGQGTLVTVSS
VL: DIQMTQSPSSVSASVGDRVTISCRASQDISGWLAWYQQKPGKAPKLLISATSSLHSGVPSRFSGSGSGTDFTLTISSLQPEDFATYYCQQTNSFPFTFGPGTKVDIKR
In the case of B11, the IC50 in experiment [1] was 70 pM. Besides, in experiment [6], binding was put at a Kd of 400 pM. In addition, in experiment [2], the “Human Whole Blood Monocyte Activation Assay [IC50, M]” value amounted to 8.6e-11 M and the “M-CSF Mouse Monocytic Cell Proliferation Assay [IC50, M]” value worked out at 7.3e-11 M.
